Test results as given in patent US11542488B2, “Sortase synthesized chimeric antigen receptors” (Novartis AG, priority 2014, dated 2023).

Columns and labels:
CD19 = biological target: T1, CD19 (Homo sapiens, UniProt P15391); assay: Flow cytometry labeling of K562 cells with scFV19 conjugated to TAMRA; type: binding
T1 construct: expressed in transfected cells; host or cells: K562
T1 sequence (P15391 20-556): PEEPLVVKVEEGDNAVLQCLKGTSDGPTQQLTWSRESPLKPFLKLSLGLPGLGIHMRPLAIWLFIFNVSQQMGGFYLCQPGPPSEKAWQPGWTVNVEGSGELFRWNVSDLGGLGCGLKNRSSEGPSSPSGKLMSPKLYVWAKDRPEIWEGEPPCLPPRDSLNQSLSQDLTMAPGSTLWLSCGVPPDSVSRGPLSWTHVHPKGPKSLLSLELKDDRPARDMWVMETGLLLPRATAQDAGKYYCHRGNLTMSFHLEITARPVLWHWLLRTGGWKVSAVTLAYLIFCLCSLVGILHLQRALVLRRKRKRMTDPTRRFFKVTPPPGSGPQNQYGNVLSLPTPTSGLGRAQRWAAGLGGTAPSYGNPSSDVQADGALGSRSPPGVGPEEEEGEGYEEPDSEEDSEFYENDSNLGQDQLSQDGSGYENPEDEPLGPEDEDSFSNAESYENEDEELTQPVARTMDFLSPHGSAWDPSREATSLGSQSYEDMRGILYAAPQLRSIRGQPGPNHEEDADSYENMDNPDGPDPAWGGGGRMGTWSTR
Excerpt: As a control, scFV19 subjected to the same reaction conditions to label the scFV with TAMRA, but omitting sortase (scFV19.LPETG+TAMRA_not conjugated (SEQ ID NO: 112)) was used. Flow cytometry analysis comparing cell labeling is shown.
To determine whether the presence of the sortase-recognition motif interferes with the ability of the scFV19 to recognize CD19, the scFV19.LPETGG.His8 (“LPETGG” and “His8” disclosed as SEQ ID NOS 21 and 111, respectively) was labeled with the G3K(TAMRA) peptide (SEQ ID NO:23) using the mutant sortase A as described in Example 1. […] Upon reaction, each of the preparations were filtered through a desalting column to remove unreacted G3K(TAMRA) peptide (SEQ ID NO: 23). Different concentrations of the scFV19.LPETG3K(TAMRA) conjugate (“LPETG3K” disclosed as SEQ ID NO: 250) and unconjugated control were then used to label untransduced K562 cells or K562 overexpressing CD19. […] Thus, the results presented herein confirm that the scFV19.LPETGG.His8 substrate (“LPETGG” and “His8” disclosed as SEQ ID NOS 21 and 111, respectively) for sortase is functional and that the sortase labeling strategy can be used to create new tools for FACS staining.

[1] = tested on: scFV directed to CD19 harboring a LPXTG sortase-recognition motif (scFV19); assay: Sortase-mediated labeling of scFV19 with GGGK(TAMRA) peptide, reducing SDS-PAGE and fluorescent scanning; type: biochemical; conditions: for calcium requirement for labeling of scFV19 with TAMRA peptide: absence or presence of 10 mM calcium
Excerpt: Characterization of the enzyme was initially done in vitro using purified proteins. As the reaction substrate, a scFV directed to CD19 (scFV19) comprising a sortase A recognition motif (LPETGG, SEQ ID NO: 21) and a His8 (SEQ ID NO: 111) purification handle at the C-terminus (also referred to herein as scFv19.LPETGG.His8 (“LPETGG” and “His8” disclosed as SEQ ID NOS 21 and 111, respectively)) was cloned, expressed, and purified. This is the same scFV19 that was used in subsequent examples to test site-specific attachment to live cells using sortase:
As a nucleophile for these test reactions fluorescently labeled peptide: GGGK(TAMRA) (KRUEGANA-001-EXP022) (SEQ ID NO:23) was synthesized and purified. The fluorophore moiety allowed for convenient monitoring of the reaction by SDS-PAGE followed by fluorescent scanning.
The activities of mutant and wild-type (SrtA aureus_His6SrtA26-206 (“His6” disclosed as SEQ ID NO: 110)) sortases were compared side-by-side in the absence or presence of 10 mM calcium in 50 mM Tris-Cl, pH 7.4, 150 mM NaCl buffer, using final concentrations of 40 μM sortase, 20 μM scFV.LPETG.His8 (“LPETG” and “His8” disclosed as SEQ ID NOS 112 and 111, respectively), and 1 mM GGGK(TAMRA) (SEQ ID NO:23). The reactions were incubated at 37° for different periods of time (as indicated in FIG. 2), and analyzed by reducing SDS-PAGE followed by fluorescent scanning (using a ChemiDoc gel imaging system from BioRad) and coomassie staining.
The activity of mutant sortase A was active in culture media (RMPI supplemented with 1% FBS) was determined using the same reaction conditions as in Example 2. The presence of the fluorescent bands indicates the successful coupling of scFv19 to the TAMRA-labeled peptide in the presence of cell culture media. […] As in Example 2, the reaction was complete upon 45′ incubation at 37° C. (FIG. 3). […]

[2] = 40 μM sortase, 20 μM scFV, 1 mM GGGK(TAMRA), 37°

B1: scFV19.LPETG3K(TAMRA) conjugate (conjugate)
scFv: EIVMTQSPATLSLSPGERATLSCRASQDISKYLNWYQQKPGQAPRLLIYHTSRLHSGIPARFSGSGSGTDYTLTISSLQPEDFAVYFCQQGNTLPYTFGQGTKLEIKGGGGSGGGGSGGGGSQVQLQESGPGLVKPSETLSLTCTVSGVSLPDYGVSWIRQPPGKGLEWIGVIWGSETTYYSSSLKSRVTISKDNSKNQVSLKLSSVTAADTAVYYCAKHYYYGGSYAMDYWGQGTLVTVSSLPETGGGK
cell labeling by flow cytometry (CD19; untransduced K562 cells or K562 overexpressing CD19, 30 min at 4° C., control reaction without sortase): cell labeling was observed only with the conjugate and only on K562 cells expressing CD19

B2: mutant sortase A: S. aureus Sortase A mutant lacking the N-terminal 59 amino acids, calcium independent and faster (SEQ ID NO: 4) (protein)
chain: MQAKPQIPKDKSKVAGYIEIPDADIKEPVYPGPATREQLNRGVSFAKENQSLDDQNISIAGHTFIDRPNYQFTNLKAAKKGSMVYFKVGNETRKYKMTSIRNVKPTAVEVLDEQKGKDKQLTLITCDDYNEETGVWETRKIFVATEVKLEHHHHHH
incubation time at which fluorescence was demonstrated [1, 2]: ≤ 15 min | time to same labeling proportion with three-fold higher enzyme concentration ([1]; 120 μM versus 40 μM sortase): half of the time | incubation time for complete labeling of scFV19 with TAMRA peptide ([1]; 50 mM Tris-Cl, pH 7.4, 150 mM NaCl buffer, 37° C.): 45 ′ | reaction speed compared with wild-type sortase ([1]; 37°): faster | specificity: serum proteins labeled with fluorophore ([1]; RPMI + 1% FBS): no proteins from the serum | activity in culture media ([1]; RPMI supplemented with 1% FBS): active | calcium requirement for labeling of scFV19 with TAMRA peptide [1, 2]: regardless of whether calcium was present | fluorescence compared to reactions containing wild-type sortase ([1]; all three timepoints): Increased fluorescence | incubation time for complete reaction ([1]; culture media (RPMI + 1% FBS), 37° C.): 45 ′ | labeling differences between reactions in buffer or in culture media ([1]; reaction kinetics and fluorescence intensity): No major labeling differences

B3: wild-type sortase: wild-type S. aureus sortase A (His6SrtA26-206) (protein, UniProt Q2FV99 26-206, looked up, fragment)
chain: KPHIDNYLHDKDKDEKIEQYDKNVKEQASKDKKQQAKPQIPKDKSKVAGYIEIPDADIKEPVYPGPATPEQLNRGVSFAEENESLDDQNISIAGHTFIDRPNYQFTNLKAAKKGSMVYFKVGNETRKYKMTSIRDVKPTDVGVLDEQKGKDKQLTLITCDDYNEKTGVWEKRKIFVATEVK
modifications: His6 tag
fluorescence at 15 minutes of incubation [1, 2]: no fluorescence was detected | calcium requirement for labeling of scFV19 with TAMRA peptide [1, 2]: essential

B4: scFV19.LPETGG.His8: scFV directed to CD19 comprising a sortase A recognition motif (LPETGG) and a His8 handle at the C-terminus (SEQ ID NO: 22) (protein)
scFv: METDTLLLWVLLLWVPGSTGEIVMTQSPATLSLSPGERATLSCRASQDISKYLNWYQQKPGQAPRLLIYHTSRLHSGIPARFSGSGSGTDYTLTISSLQPEDFAVYFCQQGNTLPYTFGQGTKLEIKGGGGSGGGGSGGGGSQVQLQESGPGLVKPSETLSLTCTVSGVSLPDYGVSWIRQPPGKGLEWIGVIWGSETTYYSSSLKSRVTISKDNSKNQVSLKLSSVTAADTAVYYCAKHYYYGGSYAMDYWGQGTLVTVSSLPETGGLDVLFEGPHHHHHHHH
modifications: C-terminal LPETGG sortase motif and His8 tag
functionality of scFV19 carrying the sortase-recognition motif (recognition of CD19) (CD19; K562 cells expressing CD19): functional
